A short description of the series: soluble on expression in E. coli; label from the status in PepcDB or PDB records.
As to “MGSDKIHHHHHHMFVGFDYGSANCAVGIMQGDEVSLLPLSTDSAYLPSTLYAMDRELIAEAVYRALPAELKADYAKKRAAQLSRARMVRHELDLDAESPAVFVGEQAVAAYLEMPEEGFYVRSPKSFLGATGLRPEQVALFEDIVTLMMQHIKVRAEAVLVQKGMASKDEARITHAVIGRPVNFQGIGGEESNRQAEAILTLAAKRAGFVDVAFLFEPLAAGMDYEAGLKADQTVLVVDVGGGTTDCSVVKMGPSHKASFDRSRDCLGHSGQRIGGNDLDIALAMNAFMPHFGLGSLMSNGKPMPSNPFWNAVAVNDISAQREFATLSTRKLIDELIKEAEQPNLLKRLLKVQQQQLSYQIVRLAERAKIALSDAHTTESSLEFIEAMLSAEVNRDCFENAIEPSLGKIEALMHQALTQAAKSLTGNGLAPEELSVEAGTAECQPDVIYVTGGTARSPAIYAKITSLYPDTPVVVGDHFGSVTAGLTRWAQKHFAQ”, the “soluble on expression in E. coli” value is “not soluble”.

“MKNDVISPEFDENGRPLRRIRSFVRRQGRLTKGQEHALENYWPVMGVEFSEDMLDFPALFGREAPVTLEIGFGMGASLVAMAKDRPEQDFLGIEVHSPGVGACLASAHEEGLSNLRVMCHDAVEVLHKMIPDNSLRMVQLFFPDPWHKARHNKRRIVQVPFAELVKSKLQLGGVFHMATDWEPYAEHMLEVMSSIDGYKNLSESNDYVPRPASRPVTKFEQRGHRLGHGVWDLMFERVK”: the “soluble on expression in E. coli” value is “soluble”. As for “MSLAYGIRLLVWGERACFTRPEMKVERVSYDVITPSAARGILEAIHWKPAICWVVDRIHVLKPIRFESIRRNEVGGKLSAASVGKAMKAGRTDGLIALADEDRQQRAATVLRDVSYVIEAHFELTARADASDSEGKHLDIFNRRARKGQYFHAPCLGVREFPASFELIEPDDVLPAVPADLRGERELGWMLHDIDFANDMTPHFFRAVMRDGVIEVPALRSEGVKAEGHHHHHH”, the entry is “soluble”; as for “VADFRYNVGLNLSAVKNKAVKFSGDGPIQTGGFNSDQIIRNEDGGLISRFYGYVADGIFQNWDEVYAHTNENGKLVQSNAQPGDIRFKDLNHDGVLDENDKTWIGNPYPDLMVGLNLGFSYKNIDFTANFYGTFGNDIFNKTKGLYSGVSGQNVWTGTLQKAWHGEGTSNDIPRLSYNDLNQNYTRVSSFFVEDGSYMRCKLLQVGYTLPKKWLNGTELRLSLSAQNPFTITSYSGMDPERPQIGKDGSVIETGIDGIAYPNPRTFLFGIDLKF”, “not soluble”. With “GMDVFSEYLAGIADPFHRERTEEVLTWIKNKYPNLHTEIKWNQPMFTDHGTFIIGFSVSKKHLAVAPEKVTIAHVEDDIVKAGYDYTEQLIRIPWNGPVDYTLLEKMIEFNILDKADCSTFWRK”, the “soluble on expression in E. coli” value is “soluble”. As to “ASEEDLAAATEKMQSMKGKKSQAAAALEAEQAKAEKRLSCLLKARTKLSFRVIRDGIKCHGGIHLKKQSEKAELDISVTNTAINNLPSDADIVITHKDLTDRAKAKLPNATHISVDNFLNSPKYDELIEKLKSNLIEREYCHASTRKGNIKLNQTVSSKEEAIKLAGQTLIDNGYVTEDYISKMFDREETSSTFMGNFIAIPHGTEEAKSEVLHSGISIIQIPEGVEYGEGNTAKVVFGIAGKNNEHLDILSNIAIICSEEETLNA”, the “soluble on expression in E. coli” value was “not soluble”. As to “MTQELGPLARTLSMPYYDDALPAHDQFHAKRVRDIALRLAGDCNGSVDRDVLAASAWLHDIGRPRERAGEIDDHDDWATAEAAQLLAAEGVKPDRIGRIKHCIQAHSIRTSSPEPRTLEAKLLFDADKLDAAGARGLVRLACIVGERSGRTGEKYAVIDDTSATDLGTSNSPDIELLRDWAQERLDTLYTQPGRRLGQTRREFMDEFFTHFAGEIGASGEWLEHHHHHH”, the “soluble on expression in E. coli” value is listed as “not soluble”. As for “MDITPALTEMELDHKPTCETVPGLPQKKHYRQRAHSNPHSDHDIEYPLTPNHMDWTKYYGDYTKGRQVDFADIGCGYGGLLMRLSPKYPDNLMIGMEIRVKVSDYVNEKIQALRKHHAEAGHYRNVAVLRSNAMKYMPNYFHKGQLSKMFFLFPDPHFKNKKHKWRIITPTLLSEYAYVLREGGIIYTITDVKDLHEWMVKHLSEHPLFERLTEEEMKKDPIVEMLFESTEEGQKVTRNDGGKWPAIFRRLPNPAL”, the entry is “not soluble”; as for “MCPKCGTECDKLFDSVCRDCFFETFKLIDLPLVLHVKICSSCGAYFHRSRWENIGNLEEVVLKAVENALFIHDEAGDVELYLEPKEITPYIYMVRAEVDAIVRGEPVHAEAATEVRVQRIACDMCSRESGGYFEAIIQIRAAGRFPTEEEKRRCSAIAREAMESMKKKGDRLAFISDYQEQKEGIDLYMGSMNASRQVCRMIISELGGSFAESPTLVGMKDGKNLYRITFAMRLPLEHHHHHH”, “not soluble”. “MIYIIGSGIAGLSAGVALRRAGKKVTLISKRIDGGSTPIAKGGVAASVGSDDSPELHAQDTIRVGDGLCDVKTVNYVTSEAKNVIETFESWGFEFEEDLRLEGGHTKRRVLHRTDETGREIFNFLLKLAREEGIPIIEDRLVEIRVKDGKVTGFVTEKRGLVEDVDKLVLATGGYSYLYEYSSTQSTNIGDGMAIAFKAGTILADMEFVQFHPTVTSLDGEVFLLTETLRGEGAQIINENGERFLFNYDKRGELAPRDILSRAIYIEMLKGHKVFIDLSKIEDFERKFPVVAKYLARHGHNYKVKIPIFPAAHFVDGGIRVNIRGESNIVNLYAIGEVSDSGLHGANRLASNSLLEGLVFGINLPRYVDSSWEGISTDDGIVHSVRISGNKTLSLKEIRRINWENVGIIRNEEKLVKAINTYSSSTQNEAIISYLTALAAEIRKESRGNHFREDYPYKDPNWEKRIYFKLVV”: the “soluble on expression in E. coli” value is “soluble”. As to “MSLSTFPTALAVAVSVPSSLTPQDFSWRKFKLKRNVKISRNFEFAISCSGDRAASIGFDVPFPKDYTELLQQVFILFAFSPLKIGGWGSRNRGGITREIKAKEATELALKDNRQLMEIEFPTAGLGSVPGDGEGGIEMTGSIQLIREFCDLLVIPEKATKTRIFFPEANEVKFARQSIFGGASFKLDYLTKPSFFEDFGFTEKVKMADRVKPEDELFIVAYPYFNVNEMLVVEELYQAAVLNTSRKLIIFNGELDRIRSDYPPFFYPKLAALSKTLFPKMETVYYIHNFKGRNGGVLFRCYPGPWKVFRRVGSTNICLHQQESMPSLKEVALDILPSAEGHHHHHH”, the “soluble on expression in E. coli” value was “not soluble”. “MAKRFTLKDAEELYLVPHWSGGFFRVGEKGDLEVTPLGPKGPAASLLEIVEALRDEGRPLPLVLRFPQILEARVRDLNEAFLEAMAKYGYQGTYRGVYPVKVNQRRLVLETVARAGRPYHLGLEAGSKPELALILAQDLSEEALITTNGFKDDDFVRLALMGRKLGRNVVITLEKFAELFRVLRLSKELGVKPLLGIRYKLKAKGAGQWEASGGENAKFGLTTPEIVRAVEVLQEEGLLDALVMLHAHIGSQVTDIRRIKAAVREAAQTYVQLRKLGAPLRYLNLGGGLAVDYDGSKTNFYASANYTLSEYAENLVYVTKEVVEAQGEPHPILVTESGRAITAYHEVLVLQVIDVIAPPGEARPSPPPPEAHPLVKELWESLQSLSPKNFQEVYHDAFADKETLQTLYDLGLVSLRDRALAEEIFYHIARRVQTIAQNLPYVPDELEDLEKLLADKLVCNFSVFQSLPDAWAIHQLFPVVPLSRLLEPPTRRATLVDISCDSDGKMDRFIDLHDVRQTLPVHPVRPGEPYYLGVFLVGAYQDVLGSNHNLFGQVGEAHVRVEEEGFAIERFVGGETAERVIEKMGFTARELMLGVERLVRQSRLSPVEKGAFLERYARELQGYTYLED”: the “soluble on expression in E. coli” value is “soluble”. Turning to “GFVNVTGMFRDRARTNRADGNQLILFDQSDFPNGVAPPSGFPFAYPQVAGIIGEEAAQNARRIDNQILNQRGLERSDFQFRVGQSAVQQRAVFLNSEVGLGNDATLYAFGGLSYKNGIGAPFRRLPFSTSAMPYRASNTDPALFPNGFQPEMNSDVVDQSLTIGVEGTIGGWTWDLSNSYGRNSLDYQMDNTVNASLLQASPTSIYAGGHAFSQNVTNLDVSRFFDDALAGINVAFGGAYRTDRYQIFSGEEASYRNYGRVQLIDDTSAASPRLVTRDTLGKEPGTQGFVGFRPENEVDRTRSNVAAYLDTEVNLTENLLVTAAGRYENYSDFGGTLNGRLAARWGLLDGRLNLRGSASTGFRAPSLHQIYFNEVRT”, the “soluble on expression in E. coli” value was “not soluble”. As for “MDPELQAIREARLAQLKNNSGGTNGDRNSGANNGGGENSAPVGAAIANFLEPQALERLSRVALVRRDRAQAVETYLKKLIATNNVTHKITEAEIVSILNGIAKQQNSQNNSKIIFERKDFSEDLNSFDKQNAKN”, the entry is “not soluble”; as for “MGSDKIHHHHHHMTEGSQQKRVVVVGAGWAGLGATYHLAKQGYDVTLLEAGPYPGGLVAGWQTTGGKSVEAGIHGFWYPYRNIFALINELNIHPFTTWTRSAQYSPAGLEVESPIFQDLPRLPTPLGTFIYTQFQRLPLIDRLSALPLLYAVVDFDNSDAAWRRYDSVTARELFKDFGVSARLYKEAFEPMLLVGLFAPGEQCSAAATLGMLYFFILAHQADFDVVWCRGTVGEKIFRPWVERIEKAGAKVLPKHRVTDLIIDSNNQATGVVCGNEVFDADAVIFAVGITGMKKIVSSSPSLQSRAEFRNLHNLGAIDVLATRLWFDRKIDIPRPSNACFGFDNTTGWTFFDLNALHDEYKNELGTVIEADFYHANQFLNWSDAEIVATVQNYLTTCVPGFAQAKVIDSSVIRLPQAVTHFAPGSYPYMLPAKTSFDNVFMSGDWIVNRHGSWSQEKAYVTGLEAANLVVSHLGEGTPVEILPVEADETHIQVARSLNQTVRKLGKFILPNFWLP”, “not soluble”; as for “MPINAAYRGPADLPEVIPVFPLAGALLLPRGQMPLNIFEPRYLAMIDDALRDGHRLIGMIQPDAAHSSETAEKPSLFNVGCVGRITQLAESGDGRYILELTGVSRFKVVDELQVLTPYRQCKVDYFPFGDDFTARKGEDEVDRETLLSVLTDFLKANNLKVDWDGVESAPNEALVNALAMMSPYGPPEKQALLEAPDLKTRAEILIAVTEMDLAKKRTSGDPPLQLEHHHHHH”, “not soluble”.

In the case of “MSDSTPKTPRGFVVHTAPVGLADDGRDDFTVLASTAPATVSAVFTRSRFAGPSVVLCREAVADGQARGVVVLARNANVATGLEGEENAREVREAVARALGLPEGEMLIASTGVIGRQYPMESIREHLKTLEWPAGEGGFDRAARAIMTTDTRPKEVRVSVGGATLVGIAKGVGMLEPDMATLLTFFATDARLDPAEQDRLFRRVMDRTFNAVSIDTDTSTSDTAVLFANGLAGEVDAGEFEEALHTAALALVKDIASDGEGAAKLIEVQVTGARDDAQAKRVGKTVVNSPLVKTAVHGCDPNWGRVAMAIGKCSDDTDIDQERVTIRFGEVEVYPPKARGDQADDALRAAVAEHLRGDEVVIGIDLAIADGAFTVYGCDLTEGYVRLNSEYTT”, the “soluble on expression in E. coli” value is reported as “soluble”. Take “GPGSMMRRVGDYEILDVVGEGAYSKVKRVRHIPTGCMFVAKIVPKTNQQVENDVRLEISILRRLKHKNIVQLIEILESTNNYYIILEPVMGGDLCDIIVGMDRPLPEQDVAALLIQLVAGVRACHRNGVAHRDLKPENLLLGTDGVLKISDFGLSRLHRESNFQASTNEYAHTLTGTLAYLAPEVFGGSYDAFRADIWSMGCIAYVLLTQNFPFGSTTDPHALEVRIRNGEVSVMPSSVSAEAKNLCKWLLSPRPEDRPTLDAVAQHDFFKRYLPAEYLRMTANRKSPIVHGANMNEFSSQVQEEAPSCSPSTATAKRKHQYVRSGSAARTSPSSSAVAGAATSSNRSSESGRDREDLVSHGTQGESDPGGYCGDV”: the “soluble on expression in E. coli” value was “soluble”. As for “MGHHHHHHSHMFLQYYLNEQGDRVYTLKKFDPMGQQTCSAHPARFSPDDKYSRHRITIKKRFKVLMTQQPRPVL”, the entry is “not soluble”.
